Data on 1 variant can be found in IntAct's records for PubMed 17595167.

Sequences and labels used below:
B1: PAN2-PAN3 deadenylation complex subunit PAN3 (Homo sapiens), Q58A45 (parent)
chain: MNSGGGLPPPSAAASPSSSSLAAAVAVVAPPGVGGVPGGAAVGVKLKYCRYYAKDKTCFYGEECQFLHEDPAAGAAPGLGLHSNSVPLALAGAPVAGFPPGAVAGGGAGPPPGPKKPDLGDPGTGAAAGGGGSSGGLDGPRLAIPGMDGGALTDTSLTDSYFSTSFIGVNGFGSPVETKYPLMQRMTNSSSSPSLLNDSAKPYSAHDPLTSPASSLFNDFGALNISQRRKPRKYRLGMLEERLVPMGSKARKAKNPIGCLADRCKSGVPINMVWWNRVTENNLQTPNPTASEFIPKGGSTSRLSNVSQSNMSAFSQVFSHPSMGSPATAGLAPGMSLSAGSSPLHSPKITPHTSPAPRRRSHTPNPASYMVPSSASTSVNNPVSQTPSSGQVIQKETVGGTTYFYTDTTPAPLTGMVFPNYHIYPPTAPHVAYMQPKANAPSFFMADELRQELINRHLITMAQIDQADMPAVPTEVDSYHSLFPLEPLPPPNRIQKSSNFGYITSCYKAVNSKDDLPYCLRRIHGFRLVNTKCMVLVDMWKKIQHSNIVTLREVFTTKAFAEPSLVFAYDFHAGGETMMSRHFNDPNADAYFTKRKWGQHEGPLPRQHAGLLPESLIWAYIVQLSSALRTIHTAGLACRVMDPTKILITGKTRLRVNCVGVFDVLTFDNSQNNNPLALMAQYQQADLISLGKVVLALACNSLAGIQRENLQKAMELVTINYSSDLKNLILYLLTDQNRMRSVNDIMPMIGARFYTQLDAAQMRNDVIEEDLAKEVQNGRLFRLLAKLGTINERPEFQKDPTWSETGDRYLLKLFRDHLFHQVTEAGAPWIDLSHIISCLNKLDAGVPEKISLISRDEKSVLVVTYSDLKRCFENTFQELIAAANGQL

Variants of B1 are the subject of the assay. The following applies: with pabp1_human PABPC1, P11940.
Sequence of pabp1_human PABPC1, P11940 (P11940 whole entry): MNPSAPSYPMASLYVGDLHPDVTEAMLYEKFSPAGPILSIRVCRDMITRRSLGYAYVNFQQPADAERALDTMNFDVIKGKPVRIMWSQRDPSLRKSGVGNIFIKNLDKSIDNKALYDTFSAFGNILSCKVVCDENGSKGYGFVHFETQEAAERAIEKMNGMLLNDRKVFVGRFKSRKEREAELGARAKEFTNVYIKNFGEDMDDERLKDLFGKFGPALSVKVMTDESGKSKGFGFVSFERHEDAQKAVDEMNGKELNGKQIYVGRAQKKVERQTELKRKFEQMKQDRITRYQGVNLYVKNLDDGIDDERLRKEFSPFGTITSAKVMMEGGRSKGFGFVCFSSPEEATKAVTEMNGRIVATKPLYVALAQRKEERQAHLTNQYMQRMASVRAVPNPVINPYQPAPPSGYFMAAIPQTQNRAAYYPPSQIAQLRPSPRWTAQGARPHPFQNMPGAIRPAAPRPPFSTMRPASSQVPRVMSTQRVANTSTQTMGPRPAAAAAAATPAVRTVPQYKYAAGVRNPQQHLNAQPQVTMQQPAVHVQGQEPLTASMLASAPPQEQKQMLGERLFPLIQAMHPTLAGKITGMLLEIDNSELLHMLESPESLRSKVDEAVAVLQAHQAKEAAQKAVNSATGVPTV
Consider F293A, for which the “effect of a mutation on the interaction” value is “decreasing interaction”.
